Results on 30 molecules are retold here after paper PMC11417369, “DNA sequence and chromatin differentiate sequence-specific transcription factor binding in the human malaria parasite Plasmodium falciparum”.

T1: AP2-HC D1 (Plasmodium falciparum, UniProt Q8IKR9 1316-1374)
T1 sequence: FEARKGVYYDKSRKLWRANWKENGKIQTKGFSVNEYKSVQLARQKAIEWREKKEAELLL

B1: CACACA_negctrl_site1361 (dsDNA)
DNA 1: TTAAAATTCAAAAAAAAAAATCAGAATATCAGAAAA
DNA 2: TTTTCTGATATTCTGATTTTTTTTTTTGAATTTTAA
B2: CACACA_negctrl_site1721 (dsDNA)
DNA 1: TTATATTTATATGTAATACAAAATAACAAAAAATTT
DNA 2: AAATTTTTTGTTATTTTGTATTACATATAAATATAA
B3: CACACA_negctrl_site1530 (dsDNA)
DNA 1: TATTTTGAAATGGAAAGGATATAGAACTTAAACAAA
DNA 2: TTTGTTTAAGTTCTATATCCTTTCCATTTCAAAATA
B4: CACACA_negctrl_site758 (dsDNA)
DNA 1: TTTTAAAAAATAAAATATTATTGAAGTAAAATATGA
DNA 2: TCATATTTTACTTCAATAATATTTTATTTTTTAAAA
B5: CACACA_negctrl_site19 (dsDNA)
DNA 1: TTAAATTCGTCATTTTAAAATAATACAAAAGTTCAA
DNA 2: TTGAACTTTTGTATTATTTTAAAATGACGAATTTAA
B6: CACACA_negctrl_site1132 (dsDNA)
DNA 1: ATGTAATCATTTTCGACTTTTTTTTTTTTTTTTTTT
DNA 2: AAAAAAAAAAAAAAAAAAAGTCGAAAATGATTACAT
B7: CACACA_negctrl_site792 (dsDNA)
DNA 1: AAAGAAAAAGAAAAAGAAAAATTAGAATATAAAATA
DNA 2: TATTTTATATTCTAATTTTTCTTTTTCTTTTTCTTT
B8: CACACA_negctrl_site1570 (dsDNA)
DNA 1: TTTTTTTTTTTTTTTTTTTTTTTTTTTTTTTGGGGG
DNA 2: CCCCCAAAAAAAAAAAAAAAAAAAAAAAAAAAAAAA
B9: CACACA_negctrl_site1042 (dsDNA)
DNA 1: ATCAAAAAAAAAAAATTTTTTTTTTTGTTTGTTTCC
DNA 2: GGAAACAAACAAAAAAAAAAATTTTTTTTTTTTGAT
B10: CACACA_negctrl_site1488 (dsDNA)
DNA 1: AATTCTTTTTATATATTAAATATTATTAATAAGTCA
DNA 2: TGACTTATTAATAATATTTAATATATAAAAAGAATT
B11: CACACA_negctrl_site1097 (dsDNA)
DNA 1: ATATTTTTAGGTGATTATTATTCGGAGAAGCGAATT
DNA 2: AATTCGCTTCTCCGAATAATAATCACCTAAAAATAT
B12: CACACA_negctrl_site388 (dsDNA)
DNA 1: TTATTTAAAATTTTTATGCGTATATATATAGGAACA
DNA 2: TGTTCCTATATATATACGCATAAAAATTTTAAATAA
B13: CACACA_negctrl_site643 (dsDNA)
DNA 1: TTTTAAAAAATATAATAATATAAATATGTTTTATAC
DNA 2: GTATAAAACATATTTATATTATTATATTTTTTAAAA
B14: CACACA_negctrl_site718 (dsDNA)
DNA 1: TATAACATTTTTTTCAAAATAGCTTTAGAAATAAAG
DNA 2: CTTTATTTCTAAAGCTATTTTGAAAAAAATGTTATA
B15: CACACA_negctrl_site1716 (dsDNA)
DNA 1: TTTATAGTTTTAAACAAAGTAATACAAATGTATATA
DNA 2: TATATACATTTGTATTACTTTGTTTAAAACTATAAA
B16: CACACA_negctrl_site869 (dsDNA)
DNA 1: TTCTTACACAAAAAAATGAAATCAATCAAAAAAAAA
DNA 2: TTTTTTTTTGATTGATTTCATTTTTTTGTGTAAGAA
B17: CACACA_negctrl_site1364 (dsDNA)
DNA 1: ATTTTTTTTTTTTTTTTTTTTTTTTTTTTTTTTTTT
DNA 2: AAAAAAAAAAAAAAAAAAAAAAAAAAAAAAAAAAAT
B18: CACACA_negctrl_site1094 (dsDNA)
DNA 1: TTTTATTGTTTTTTTTTTTTTTCTTTTTTTTTTTTT
DNA 2: AAAAAAAAAAAAAGAAAAAAAAAAAAAACAATAAAA
B19: CACACA_negctrl_site1802 (dsDNA)
DNA 1: TTATAATAAATATTTATTATATATAATATATATTAC
DNA 2: GTAATATATATTATATATAATAAATATTTATTATAA
B20: CACACA_negctrl_site662 (dsDNA)
DNA 1: TTGTATTATATTGTATTATGTTTAAATGAAAAAAAA
DNA 2: TTTTTTTTCATTTAAACATAATACAATATAATACAA
B21: CACACA_negctrl_site856 (dsDNA)
DNA 1: TTTCCTGGTCAAGGGGTTACGGTTACGTCCTCTTGC
DNA 2: GCAAGAGGACGTAACCGTAACCCCTTGACCAGGAAA
B22: CACACA_negctrl_site279 (dsDNA)
DNA 1: TGTTTTTGTGATCATATGAAAAAATTACCTACAAGG
DNA 2: CCTTGTAGGTAATTTTTTCATATGATCACAAAAACA
B23: CACACA_negctrl_site1520 (dsDNA)
DNA 1: TCTTAAATTATGATAAAATATAATAAATAAATAAAT
DNA 2: ATTTATTTATTTATTATATTTTATCATAATTTAAGA
B24: CACACA_negctrl_site1371 (dsDNA)
DNA 1: ATAATTAGTTCAATTTTTTTTTTTTTTTTTTTTTTT
DNA 2: AAAAAAAAAAAAAAAAAAAAAAATTGAACTAATTAT
B25: CACACA_negctrl_site147 (dsDNA)
DNA 1: GATTACCTTTTTTTTTTTTTTTTTTTTTTTTTTTTC
DNA 2: GAAAAAAAAAAAAAAAAAAAAAAAAAAAAGGTAATC
B26: CACACA_negctrl_site1410 (dsDNA)
DNA 1: TAAAGTACAGGAGTAAATTGAAAAAAAAAAAAAAAA
DNA 2: TTTTTTTTTTTTTTTTCAATTTACTCCTGTACTTTA
B27: CACACA_negctrl_site980 (dsDNA)
DNA 1: ATTTTTAAGCATATCAAAAAAAAAAAAAAAATTAAT
DNA 2: ATTAATTTTTTTTTTTTTTTTGATATGCTTAAAAAT
B28: CACACA_negctrl_site1319 (dsDNA)
DNA 1: ATTTTTTTTTTTTTTTTTTTTTTTTATGAATGTTAT
DNA 2: ATAACATTCATAAAAAAAAAAAAAAAAAAAAAAAAT
B29: CACACA_negctrl_site1800 (dsDNA)
DNA 1: TTTTAACGTAATTCAAATGAGCAGAATTTTTTAAAA
DNA 2: TTTTAAAAAATTCTGCTCATTTGAATTACGTTAAAA
B30: CACACA_negctrl_site966 (dsDNA)
DNA 1: TATTTGTTTGAATTTTTTTTTTTTTTTTTTTATGTG
DNA 2: CACATAAAAAAAAAAAAAAAAAAATTCAAACAAATA

This series deals with T1, AP2-HC D1. In words: gcPBM; about 25 ug protein; PBS, 1% milk, 0.2 mg/ml BSA, salmon testes DNA, 0.03% Triton X-100. The settings on record: tags: N-terminal GST (pGEX-4T-1), kept; label: surface-attached array probe.
Turning to B1, the binding signal is 9.36 ln median PBM intensity, better of two orientations.

As for B2, the binding signal is 9.33 ln median PBM intensity, better of two orientations.

B3: the binding signal was 9.32 ln median PBM intensity, better of two orientations.

Take B4: the binding signal was 9.36 ln median PBM intensity, better of two orientations.

On to B5, for which the binding signal was 9.33 ln median PBM intensity, better of two orientations.

As to B6, the binding signal was 9.38 ln median PBM intensity, better of two orientations.

Consider B7, for which the binding signal is 9.29 ln median PBM intensity, better of two orientations.

In the case of B8, the binding signal is 9.36 ln median PBM intensity, better of two orientations.

Consider B9, for which the binding signal was 9.33 ln median PBM intensity, better of two orientations.

On to B10, for which the binding signal is 9.39 ln median PBM intensity, better of two orientations.

Regarding B11, the binding signal was 9.32 ln median PBM intensity, better of two orientations.

Regarding B12, the binding signal is 9.3 ln median PBM intensity, better of two orientations.

Regarding B13, the binding signal is 9.34 ln median PBM intensity, better of two orientations.

B14: the binding signal was 9.31 ln median PBM intensity, better of two orientations.

Take B15: the binding signal is 9.34 ln median PBM intensity, better of two orientations.

As for B16, the binding signal was 9.37 ln median PBM intensity, better of two orientations.

As for B17, the binding signal is 9.34 ln median PBM intensity, better of two orientations.

As to B18, the binding signal is 9.39 ln median PBM intensity, better of two orientations.

Take B19: the binding signal was 9.39 ln median PBM intensity, better of two orientations.

With B20, the binding signal is 9.32 ln median PBM intensity, better of two orientations.

Consider B21, for which the binding signal was 9.35 ln median PBM intensity, better of two orientations.

Consider B22, for which the binding signal is 9.38 ln median PBM intensity, better of two orientations.

Consider B23, for which the binding signal was 9.33 ln median PBM intensity, better of two orientations.

Regarding B24, the binding signal was 9.38 ln median PBM intensity, better of two orientations.

For the molecule B25, the binding signal is 9.37 ln median PBM intensity, better of two orientations.

In the case of B26, the binding signal is 9.3 ln median PBM intensity, better of two orientations.

Regarding B27, the binding signal was 9.35 ln median PBM intensity, better of two orientations.

As for B28, the binding signal was 9.34 ln median PBM intensity, better of two orientations.

As to B29, the binding signal was 9.36 ln median PBM intensity, better of two orientations.

As to B30, the binding signal was 9.38 ln median PBM intensity, better of two orientations.
